{
  "source": "paper PMC4046962",
  "molecular_target": "SiaM (Streptomyces sp. A7248)",
  "assay": "small-angle X-ray scattering (SAXS); SiaM in 10 mM Na2HPO4, 1.8 mM KH2PO4, 400 mM Na2SO4, pH 8.3, 4°C; curves of monomer, two dimers and tetramer fitted with CRYSOL; mixture analysed with OLIGOMER",
  "data": [
    {"substance": "SiaM (enzyme)", "values": [
      {"measurement": "stoichiometry N", "result": 4}
    ]}
  ]
}
